Laboratory results from PMC3655159 (Journal of molecular biology, 2013).

Biological target: the molecule itself
Assay: SDS-PAGE under mildly denaturing conditions

B1: gB730 L700G/L711G (domain or fragment)
chain: not shown
stoichiometry N: 3
